Legend:
[1] = biological target: T1, FZD1 cysteine-rich domain (CRD), MYC-tagged and GPI-anchored on CHO cells (human); test: flow cytometry, CHO-CRD cells;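 also: flow cytometry of Fab binding to CHO cells overexpressing a Frizzled CRD, with binding defined as median fluorescence over twice that of CHO cells lacking any Frizzled CRD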
[2] = biological target: T2, FZD2 cysteine-rich domain (CRD), MYC-tagged and GPI-anchored on CHO cells (human, UniProt Q14332 35-161); test: flow cytometry, CHO-CRD cells;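 also: flow cytometry of Fab binding to CHO cells overexpressing a Frizzled CRD, with binding defined as median fluorescence over twice that of CHO cells lacking any Frizzled CRD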
[3] = biological target: T3, FZD3 cysteine-rich domain (CRD), MYC-tagged and GPI-anchored on CHO cells (human, UniProt Q9NPG1 24-150, GPI anchor); test: flow cytometry, CHO-CRD cells;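 also: flow cytometry of Fab binding to CHO cells overexpressing a Frizzled CRD, with binding defined as median fluorescence over twice that of CHO cells lacking any Frizzled CRD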
T3 construct: domain: cysteine-rich domain (CRD); also called FZD3 CRD; CHO-myc-FZDGPI; not shown: MYC tag and GPI anchor signal
T3 sequence (looked up): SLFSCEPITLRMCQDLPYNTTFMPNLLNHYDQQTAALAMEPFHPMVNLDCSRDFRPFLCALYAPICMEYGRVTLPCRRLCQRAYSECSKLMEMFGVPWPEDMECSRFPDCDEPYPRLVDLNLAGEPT

[4] = biological target: T4, FZD4 cysteine-rich domain (CRD), MYC-tagged and GPI-anchored on CHO cells (human, UniProt Q9ULV1 42-167, GPI anchor); test: flow cytometry, CHO-CRD cells;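 also: flow cytometry of Fab binding to CHO cells overexpressing a Frizzled CRD, with binding defined as median fluorescence over twice that of CHO cells lacking any Frizzled CRD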
T4 construct: also called FZD4 CRD; CHO-myc-FZDGPI; not shown: MYC tag and GPI anchor signal
T4 sequence: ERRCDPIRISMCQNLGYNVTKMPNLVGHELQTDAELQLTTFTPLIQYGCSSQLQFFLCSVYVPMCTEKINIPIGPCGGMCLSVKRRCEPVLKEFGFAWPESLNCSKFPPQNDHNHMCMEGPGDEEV

[5] = biological target: T5, FZD5 cysteine-rich domain (CRD), MYC-tagged and GPI-anchored on CHO cells (human, UniProt Q13467 29-156, GPI anchor); test: flow cytometry, CHO-CRD cells
T5 construct: also called FZD5 CRD; CHO-myc-FZDGPI; not shown: MYC tag and GPI anchor signal
T5 sequence: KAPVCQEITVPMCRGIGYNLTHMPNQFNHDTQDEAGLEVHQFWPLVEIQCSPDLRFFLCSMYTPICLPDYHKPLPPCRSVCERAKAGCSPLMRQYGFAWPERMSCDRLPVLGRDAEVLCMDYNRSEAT

[6] = biological target: T6, FZD6 cysteine-rich domain (CRD), MYC-tagged and GPI-anchored on CHO cells (human, UniProt O60353 20-146, GPI anchor); test: flow cytometry, CHO-CRD cells
T6 construct: also called FZD6 CRD; CHO-myc-FZDGPI; not shown: MYC tag and GPI anchor signal
T6 sequence: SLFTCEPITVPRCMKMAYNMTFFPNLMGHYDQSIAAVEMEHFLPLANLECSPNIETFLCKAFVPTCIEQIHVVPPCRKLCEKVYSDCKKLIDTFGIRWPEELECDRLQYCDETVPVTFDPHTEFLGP

[7] = biological target: T7, FZD7 cysteine-rich domain (CRD), MYC-tagged and GPI-anchored on CHO cells (human, UniProt O75084 45-169); test: flow cytometry, CHO-CRD cells
[8] = biological target: T8, FZD8 cysteine-rich domain (CRD), MYC-tagged and GPI-anchored on CHO cells (human, UniProt Q498S8 31-155 (rat entry), GPI anchor); test: flow cytometry, CHO-CRD cells
T8 construct: also called FZD8 CRD; CHO-myc-FZDGPI; not shown: MYC tag and GPI anchor signal
T8 sequence: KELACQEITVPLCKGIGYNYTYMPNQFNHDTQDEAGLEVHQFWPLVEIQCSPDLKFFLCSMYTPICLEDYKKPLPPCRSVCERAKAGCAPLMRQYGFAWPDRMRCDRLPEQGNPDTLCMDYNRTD

[9] = biological target: T9, FZD9 cysteine-rich domain (CRD), MYC-tagged and GPI-anchored on CHO cells (human, UniProt O00144 35-161, GPI anchor); test: flow cytometry, CHO-CRD cells
T9 construct: also called FZD9 CRD; CHO-myc-FZDGPI; not shown: MYC tag and GPI anchor signal
T9 sequence: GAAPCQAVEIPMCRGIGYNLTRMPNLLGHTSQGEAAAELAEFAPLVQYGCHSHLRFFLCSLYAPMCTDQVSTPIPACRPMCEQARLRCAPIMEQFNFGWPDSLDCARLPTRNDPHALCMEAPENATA

[10] = biological target: T10, FZD10 cysteine-rich domain (CRD), MYC-tagged and GPI-anchored on CHO cells (human, UniProt Q9ULW2 30-156, GPI anchor); test: flow cytometry, CHO-CRD cells
T10 construct: also called FZD10 CRD; CHO-myc-FZDGPI; not shown: MYC tag and GPI anchor signal
T10 sequence: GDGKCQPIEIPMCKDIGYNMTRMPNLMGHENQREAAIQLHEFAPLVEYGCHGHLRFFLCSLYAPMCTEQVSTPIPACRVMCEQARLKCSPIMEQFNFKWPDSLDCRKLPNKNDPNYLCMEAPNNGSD

[11] = biological target: T1, FZD1 cysteine-rich domain (CRD), …; test: immunofluorescence, CHO-CRD cells
[12] = biological target: T2, FZD2 cysteine-rich domain (CRD), …; test: immunofluorescence, CHO-CRD cells
[13] = biological target: T3, FZD3 cysteine-rich domain (CRD), …; test: immunofluorescence, CHO-CRD cells
[14] = biological target: T4, FZD4 cysteine-rich domain (CRD), …; test: immunofluorescence, CHO-CRD cells
[15] = biological target: T6, FZD6 cysteine-rich domain (CRD), …; test: immunofluorescence, CHO-CRD cells
[16] = biological target: T7, FZD7 cysteine-rich domain (CRD), …; test: immunofluorescence, CHO-CRD cells
[17] = biological target: T9, FZD9 cysteine-rich domain (CRD), …; test: immunofluorescence, CHO-CRD cells
[18] = biological target: T10, FZD10 cysteine-rich domain (CRD), …; test: immunofluorescence, CHO-CRD cells
FZD1-Fc = biological target: T11, FZD1-Fc (UniProt Q9UP38 73-250, limits assumed); test: SPR, Frizzled-Fc chimera;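 also: binding targets are Fc fusions carrying an extracellular Frizzled fragment that contains the CRD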
T11 construct: extracellular domain; also called Frizzled-Fc chimera (FZD1); not shown: Fc part
T11 sequence (Q9UP38 73-250 limits assumed): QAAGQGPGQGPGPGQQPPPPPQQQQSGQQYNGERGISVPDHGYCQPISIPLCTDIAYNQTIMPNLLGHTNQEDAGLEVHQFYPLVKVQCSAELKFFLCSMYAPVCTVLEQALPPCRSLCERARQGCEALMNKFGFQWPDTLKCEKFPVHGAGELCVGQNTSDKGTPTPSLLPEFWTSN

FZD2-Fc = biological target: T12, FZD2-Fc (UniProt Q14332 24-190, limits assumed); test: SPR, Frizzled-Fc chimera;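 also: binding targets are Fc fusions carrying an extracellular Frizzled fragment that contains the CRD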
T12 construct: extracellular domain; also called Frizzled-Fc chimera (FZD2); not shown: Fc part

[19] = biological target: T13, recombinant human FZD5-Fc chimera (R&D Systems, Catalog no. 1617-FZ) (human, UniProt Q13467 27-167); test: SPR, Frizzled-Fc chimera;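 also: binding targets are Fc fusions carrying an extracellular Frizzled fragment that contains the CRD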
T13 construct: used for selection and ELISA; Fc part of the bought chimera not given
T13 sequence: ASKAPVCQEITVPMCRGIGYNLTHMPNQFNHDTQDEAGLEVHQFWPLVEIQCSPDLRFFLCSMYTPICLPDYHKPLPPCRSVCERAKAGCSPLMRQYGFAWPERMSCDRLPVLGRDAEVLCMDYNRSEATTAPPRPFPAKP

FZD7-Fc = FZD7-Fc (UniProt O75084 33-185); test: SPR, Frizzled-Fc chimera;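 also: binding targets are Fc fusions carrying an extracellular Frizzled fragment that contains the CRD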
FZD8-Fc = biological target: T14, FZD8-Fc (UniProt Q9H461 28-158, limits assumed); test: SPR, Frizzled-Fc chimera
T14 construct: extracellular domain; also called Frizzled-Fc chimera (FZD8); not shown: Fc part
T14 sequence (looked up): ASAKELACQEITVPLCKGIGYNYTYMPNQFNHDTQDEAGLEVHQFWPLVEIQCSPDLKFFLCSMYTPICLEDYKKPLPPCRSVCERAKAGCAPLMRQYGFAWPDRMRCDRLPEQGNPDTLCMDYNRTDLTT

[20] = biological target: T3, FZD3 cysteine-rich domain (CRD), …; test: flow cytometry on CHO-GPI cells over-expressing the Frizzled CRD;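 also: binding of recombinant anti-Frizzled Fabs to the cells, read as fold mean fluorescence intensity above secondary-antibody-only background and normalized to control CHO-GPI cells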
[21] = biological target: T4, FZD4 cysteine-rich domain (CRD), …; test: as above
[22] = biological target: T5, FZD5 cysteine-rich domain (CRD), …; test: as above
[23] = biological target: T6, FZD6 cysteine-rich domain (CRD), …; test: as above
[24] = biological target: T7, FZD7 cysteine-rich domain (CRD), …; test: as above
[25] = biological target: T9, FZD9 cysteine-rich domain (CRD), …; test: as above
[26] = biological target: T10, FZD10 cysteine-rich domain (CRD), …; test: as above

B1: Fab-2926 (Fab, V domains shown)
VH: EVQLVESGGGLVQPGGSLRLSCAASGFNIYSSYMHWVRQAPGKGLEWVASIYPSSSSTSYADSVKGRFTISADTSKNTAYLQMNSLRAEDTAVYYCARGGLDYWGQGTLVTVSS
VL: DIQMTQSPSSLSASVGDRVTITCRASQSVSSAVAWYQQKPGKAPKLLIYSASSLYSGVPSRFSGSRSGTDFTLTISSLQPEDFATYYCQQWYHGGSLFTFGQGTKVEIK
notes: Fab; also called Fv-2926
B1 gave a median fluorescence [1] of 7.17, a median fluorescence [2] of 6.21 and a median fluorescence [3] of 4.61. For the same binder, the median fluorescence [4] was 6.73, the median fluorescence [5] was 34.6 and the median fluorescence [6] was 3.05. The median fluorescence [7] was 2.71, the median fluorescence [8] was 12.9 and the median fluorescence [9] was 3.65. The median fluorescence [10] was 2.92, the binding result [11] was “no binding” and the binding result [12] was “no binding”. B1: no binding [13]; no binding [14]; no binding [15]. B1: no binding [16]; no binding [17]; no binding [18].

B2: IgG-2916 (antibody, V domains shown)
VH: EVQLVESGGGLVQPGGSLRLSCAASGFNISYSSIHWVRQAPGKGLEWVASIYPSYSYTYYADSVKGRFTISADTSKNTAYLQMNSLRAEDTAVYYCARYGYYGMDYWGQGTLVTVSS
VL: DIQMTQSPSSLSASVGDRVTITCRASQSVSSAVAWYQQKPGKAPKLLIYSASSLYSGVPSRFSGSRSGTDFTLTISSLQPEDFATYYCQQWYHYPYLITFGQGTKVEIK
For B2, the Kd (FZD1-Fc) was 1.24 nM, the koff (FZD1-Fc) was 0.000451 s⁻¹ and the kon (FZD1-Fc) was 364000 M⁻¹ s⁻¹. The Kd (FZD2-Fc) was 0.905 nM, the koff (FZD2-Fc) was 0.000452 s⁻¹ and the kon (FZD2-Fc) was 500000 M⁻¹ s⁻¹. It also gave a Kd [19] of 0.00988 nM, a koff [19] of 1.3e-05 s⁻¹ and a kon [19] of 1.32e+06 M⁻¹ s⁻¹. It also gave a Kd (FZD7-Fc) of 0.496 nM, a koff (FZD7-Fc) of 0.000382 s⁻¹ and a kon (FZD7-Fc) of 770000 M⁻¹ s⁻¹. The Kd (FZD8-Fc) was 0.0455 nM, the koff (FZD8-Fc) was 4.75e-05 s⁻¹ and the kon (FZD8-Fc) was 1.04e+06 M⁻¹ s⁻¹.

B3: Fab-2928 (Fab, V domains shown)
VH: EVQLVESGGGLVQPGGSLRLSCAASGFNISYSSIHWVRQAPGKGLEWVASIYPSYSSTYYADSVKGRFTISADTSKNTAYLQMNSLRAEDTAVYYCARYYAMDYWGQGTLVTVSS
VL: DIQMTQSPSSLSASVGDRVTITCRASQSVSSAVAWYQQKPGKAPKLLIYSASSLYSGVPSRFSGSRSGTDFTLTISSLQPEDFATYYCQQAFYYPITFGQGTKVEIK
notes: Fab; also called Fv-2928
In the case of B3, the median fluorescence [3] is reported as 4.37, the median fluorescence [4] is reported as 5.19 and the median fluorescence [5] is reported as 42.9. It also gave a median fluorescence [6] of 3.08, a median fluorescence [7] of 5.94 and a median fluorescence [9] of 4.49. The median fluorescence [10] was 3.96, the binding result [20] was “no binding (tested: 200 nM)” and the binding result [21] was “no binding (tested: 200 nM)”. The “fold-increase in mean fluorescence intensity over background (secondary antibody alone), normalized to control CHO-GPI” value [22] was 13 fold, the binding result [23] was “no binding (tested: 200 nM)” and the binding result [24] was “no binding (tested: 200 nM)”. B3: no binding (tested: 200 nM) [25]; no binding (tested: 200 nM) [26].

— US20210253718A1 (MODMAB THERAPEUTICS, published 2021)
